According to patent publication US20250092134A1 (Janssen / Centocor, published 2025):

B1: 20A9A9 (antibody, V domains shown)
VH: EVQLQESGPGLVQPSQSLSITCTVSGFSLTSYGVHWVRQSPGKGLEWLGIIWSAGGTDYNAAFISRLSISKDNSKSQIFFKLNSLHADDTAIYFCARGSFYDYGRLDYWGQGTTLTVSS
VL: DIVMTQSHRFMSTSVGDRVSITCKASQDVSTAVAWYQQKPGQSPKLLIYSSSYRYTGVPDRFTGSGSGTDFTFTISSVQAEDLAVYYCQQHYGTPYTFGGGTKLEIQ
B2: 20C12A3 (antibody, V domains shown)
VH: EVQLQESGAELVRPGTSVKMSCKASGYTFTHYWIDWTKQRPGHGLEWIGNIYPGGGYTNYNENFKGKATLTADKSSSTVFMQFSSLTSDDSAIYYCTRKGYYYGSDWYFDVWGTGTTVTVSS
VL: STSVGDRVSITCKASQDVSTAVAWYHQKPGQSPKLLIYSASYRYTGVPDRFTGSGSGTDFTFTISSVQAEDLAVYYCQQHYTTPYTFGGGTKLEMK
B3: 23A9B10 (antibody, V domains shown)
VH: EVQLQESGPGLVKPSQSLSLTCSVTGYSITSGYYWNWIRQFLGNKLEWMGYITYDGSNNYNPSLKDRISITRDTSKNQFFLNLNSVTTDDTATYYCARGGGYVPVWGTGTTVTVSS
VL: IQMTQSPAFLSVSPGERVSFSCRASQNIGTSIHWYQQRTNGSPRLLIKYASESISGIPSRFSGSGSGTDFTLSINSVESEDFADYYCHQSHNWPTTFGAGTKLELK

What follows are binders tested against Vβ17 (on cells expressing Vβ17) (assay: cell-based or functional assay).
Chain of Vβ17 (on cells expressing Vβ17) (A0A075B6N1 22-114): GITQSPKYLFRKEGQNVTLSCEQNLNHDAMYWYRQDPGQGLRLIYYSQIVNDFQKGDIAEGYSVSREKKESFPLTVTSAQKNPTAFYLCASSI

Row | Cell Internalization (EC50) [nM] | Binder
1 | 0.29 | B1
2 | 0.06 | B2
3 | 15.4 | B3
